Measured values published in patent US20220098306A1 (published 2022).
Like-named read-outs stand apart in the source and are kept apart here.

How the values were obtained:
[1] = biological target: T1, B7H3 (antigen of the affinity statements) (human, UniProt Q5ZPR3 29-466)
T1 chain: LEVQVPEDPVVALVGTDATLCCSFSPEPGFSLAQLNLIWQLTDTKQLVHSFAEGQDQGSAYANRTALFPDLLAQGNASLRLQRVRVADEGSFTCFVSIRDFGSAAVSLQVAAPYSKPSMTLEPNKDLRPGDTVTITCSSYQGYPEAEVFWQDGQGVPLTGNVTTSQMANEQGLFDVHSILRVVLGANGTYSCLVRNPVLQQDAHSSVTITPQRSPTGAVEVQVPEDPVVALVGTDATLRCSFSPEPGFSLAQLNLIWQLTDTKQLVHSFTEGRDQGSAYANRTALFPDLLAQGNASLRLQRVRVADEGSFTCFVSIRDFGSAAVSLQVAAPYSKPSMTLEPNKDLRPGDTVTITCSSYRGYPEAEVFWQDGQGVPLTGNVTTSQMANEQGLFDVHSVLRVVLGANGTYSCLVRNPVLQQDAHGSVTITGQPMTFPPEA

cynomolgus B7H3 = biological target: T2, cynomolgus B7H3
T2 chain: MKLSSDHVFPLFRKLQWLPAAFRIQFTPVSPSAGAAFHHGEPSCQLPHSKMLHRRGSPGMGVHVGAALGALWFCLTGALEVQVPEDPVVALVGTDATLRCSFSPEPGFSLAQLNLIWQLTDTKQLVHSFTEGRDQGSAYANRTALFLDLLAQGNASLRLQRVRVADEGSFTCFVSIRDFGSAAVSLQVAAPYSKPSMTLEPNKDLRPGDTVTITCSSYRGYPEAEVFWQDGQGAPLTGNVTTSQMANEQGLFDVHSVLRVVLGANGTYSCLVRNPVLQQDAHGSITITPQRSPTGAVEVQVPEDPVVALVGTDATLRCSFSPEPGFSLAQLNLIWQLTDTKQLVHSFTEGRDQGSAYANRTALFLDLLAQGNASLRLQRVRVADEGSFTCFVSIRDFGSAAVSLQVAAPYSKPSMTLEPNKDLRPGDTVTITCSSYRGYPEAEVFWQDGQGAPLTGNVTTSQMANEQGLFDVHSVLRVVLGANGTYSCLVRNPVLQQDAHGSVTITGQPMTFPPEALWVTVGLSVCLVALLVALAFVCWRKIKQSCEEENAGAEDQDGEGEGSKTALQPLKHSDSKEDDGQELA

[2] = biological target: T3, CD28 (antigen of the affinity determinations) (human, UniProt P10747 19-152)
[3] = biological target: T1, B7H3 (antigen of the affinity …); experiment: -; monovalent KD
[4] = biological target: T3, CD28 (antigen of the affinity …); experiment: -; Fab, 2+1 CLC

B1: 3C4_H1_L1.1 (antibody, V domains shown)
VH: EVQLLESGGGLVQPGGSLRLSCAVSGFSLSSYGVIWVRQAPGKGLEYVSWVSSGGSTNYASSVKGRFTISRDTSKNTVYLQMNSLRAEDTAVYFCARGATNSGTDIWGPGTLVTVSS
VL: DIVMTQSPSSLSASVGDRVTITCRASQSINSWLSWYQQKPGKPPKLLIYGASNLASGVPSRFKGSGSGTDFTLTISSLQPEDFATYYCQNNYGIIAAGATFGGGTKVEIK
Work on B1 yielded a Kd [1] of 29.7 nM and a Kd (cynomolgus B7H3) of 27.2 nM.

B2: 2E4A3_H1.3_1A7_L1 (antibody, V domains shown)
VH: QVQLVQSGAEVKKPGASVKVSCKASGYIFTNHYMHWVRQAPGQGLEWMGIISPSAGSTDYAQKFQGRVTMTRDTSTSTVYMELSSLRSEDTAVYYCARGGGSSPRLDYWGQGTLVTVSS
VL: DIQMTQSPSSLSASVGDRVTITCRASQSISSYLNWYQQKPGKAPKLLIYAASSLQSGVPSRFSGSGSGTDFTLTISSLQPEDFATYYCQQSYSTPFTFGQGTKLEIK
B2 showed a Kd [1] of 12 nM and a Kd (cynomolgus B7H3) of 7 nM.

B3: 2E4A3_H1.22_1A7_L1 (antibody, V domains shown)
VH: QVQLVQSGAEVKKPGASVKVSCKASGYIFTNNYMHWVRQAPGQGLEWMGIISPSVGRTAYAQKFQGRVTMTRDTSTSTVYMELSSLRSEDTAVYYCARGGGSSPRLDYWGQGTLVTVSS
VL: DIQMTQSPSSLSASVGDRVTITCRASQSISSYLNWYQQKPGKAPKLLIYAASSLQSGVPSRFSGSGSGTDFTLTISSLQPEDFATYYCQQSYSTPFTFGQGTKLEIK
B3 showed a Kd [1] of 7.6 nM and a Kd (cynomolgus B7H3) of 4.3 nM.

B4: XENP35153 (bispecific antibody)
heavy: EVQLLESGGGLVQPGGSLRLSCAVSGFSLSSYGVIWVRQAPGKGLEYVSWVSSGGSTNYASSVKGRFTISRDTSKNTVYLQMNSLRAEDTAVYFCARGATNSGTDIWGPGTLVTVSSASTKGPSVFPLAPSSKSTSGGTAALGCLVKDYFPEPVTVSWNSGALTSGVHTFPAVLQSSGLYSLSSVVTVPSSSLGTQTYICNVNHKPSDTKVDKKVEPKSCDKTHTCPPCPAPPVAGPSVFLFPPKPKDTLMISRTPEVTCVVVDVKHEDPEVKFNWYVDGVEVHNAKTKPREEEYNSTYRVVSVLTVLHQDWLNGKEYKCKVSNKALPAPIEKTISKAKGQPREPQVYTLPPSREEMTKNQVSLTCDVSGFYPSDIAVEWESDGQPENNYKTTPPVLDSDGSFFLYSKLTVDKSRWEQGDVFSCSVLHEALHSHYTQKSLSLSPGK
scFv-Fc: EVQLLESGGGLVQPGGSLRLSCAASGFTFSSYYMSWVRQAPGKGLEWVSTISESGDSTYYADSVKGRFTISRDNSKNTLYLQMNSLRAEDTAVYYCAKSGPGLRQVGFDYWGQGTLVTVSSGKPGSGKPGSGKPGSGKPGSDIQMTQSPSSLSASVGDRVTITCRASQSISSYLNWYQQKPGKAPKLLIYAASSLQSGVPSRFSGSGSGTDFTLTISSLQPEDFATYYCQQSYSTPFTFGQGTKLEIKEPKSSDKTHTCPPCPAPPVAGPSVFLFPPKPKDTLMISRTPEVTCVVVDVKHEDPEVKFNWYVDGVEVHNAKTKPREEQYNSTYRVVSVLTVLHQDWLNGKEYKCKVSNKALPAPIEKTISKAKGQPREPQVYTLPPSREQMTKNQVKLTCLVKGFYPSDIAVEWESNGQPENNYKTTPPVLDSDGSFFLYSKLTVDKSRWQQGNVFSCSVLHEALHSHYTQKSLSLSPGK
light: DIVMTQSPSSLSASVGDRVTITCRASQSINSWLSWYQQKPGKPPKLLIYGASNLASGVPSRFKGSGSGTDFTLTISSLQPEDFATYYCQNNYGIIAAGATFGGGTKVEIKRTVAAPSVFIFPPSDEQLKSGTASVVCLLNNFYPREAKVQWKVDNALQSGNSQESVTEQDSKDSTYSLSSTLTLSKADYEKHKVYACEVTHQGLSSPVTKSFNRGEC
For B4, the Kd [2] was 360 nM and the Kd [3] was 0.5 nM.

B5: XENP34398 (bispecific antibody)
heavy 1: EVQLLESGGGLVQPGGSLRLSCAASGFTFSSYYMSWVRQAPGKGLEWVSTISESGDSTYYADSVKGRFTISRDNSKNTLYLQMNSLRAEDTAVYYCAKSGPGLRQVGFDYWGQGTLVTVSSASTKGPSVFPLAPSSKSTSGGTAALGCLVKDYFPEPVTVSWNSGALTSGVHTFPAVLQSSGLYSLSSVVTVPSSSLGTQTYICNVNHKPSDTKVDKKVEPKSCDKTHTCPPCPAPPVAGPSVFLFPPKPKDTLMISRTPEVTCVVVDVKHEDPEVKFNWYVDGVEVHNAKTKPREEEYNSTYRVVSVLTVLHQDWLNGKEYKCKVSNKALPAPIEKTISKAKGQPREPQVYTLPPSREEMTKNQVSLTCDVSGFYPSDIAVEWESDGQPENNYKTTPPVLDSDGSFFLYSKLTVDKSRWEQGDVFSCSVLHEALHSHYTQKSLSLSPGK
heavy 2: QVQLVQSGAEVKKPGASVKVSCKASGYIFTNNYMHWVRQAPGQGLEWMGIISPSVGRTAYAQKFQGRVTMTRDTSTSTVYMELSSLRSEDTAVYYCARGGGSSPRLDYWGQGTLVTVSSASTKGPSVFPLAPSSKSTSGGTAALGCLVKDYFPEPVTVSWNSGALTSGVHTFPAVLQSSGLYSLSSVVTVPSSSLGTQTYICNVNHKPSNTKVDKKVEPKSCGKPGSGKPGSQVQLVQSGAEVKKPGASVKVSCKASGYIFTNNYMHWVRQAPGQGLEWMGIISPSVGRTAYAQKFQGRVTMTRDTSTSTVYMELSSLRSEDTAVYYCARGGGSSPRLDYWGQGTLVTVSSASTKGPSVFPLAPSSKSTSGGTAALGCLVKDYFPEPVTVSWNSGALTSGVHTFPAVLQSSGLYSLSSVVTVPSSSLGTQTYICNVNHKPSNTKVDKKVEPKSCDKTHTCPPCPAPPVAGPSVFLFPPKPKDTLMISRTPEVTCVVVDVKHEDPEVKFNWYVDGVEVHNAKTKPREEQYNSTYRVVSVLTVLHQDWLNGKEYKCKVSNKALPAPIEKTISKAKGQPREPQVYTLPPSREQMTKNQVKLTCLVKGFYPSDIAVEWESNGQPENNYKTTPPVLDSDGSFFLYSKLTVDKSRWQQGNVFSCSVLHEALHSHYTQKSLSLSPGK
light: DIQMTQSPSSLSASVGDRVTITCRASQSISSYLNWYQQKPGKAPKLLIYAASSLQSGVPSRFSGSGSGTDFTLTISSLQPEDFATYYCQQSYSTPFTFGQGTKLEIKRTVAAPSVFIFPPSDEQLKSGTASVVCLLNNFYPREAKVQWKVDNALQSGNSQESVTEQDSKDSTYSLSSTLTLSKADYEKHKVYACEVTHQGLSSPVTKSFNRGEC
With B5 the Kd [2] was 63 nM and the Kd [3] was 7.6 nM.

B6: XENP34732 (bispecific antibody)
heavy: EVQLLESGGGLVQPGGSLRLSCAASGFTFSNYYMAWVRQAPGKGLEWVSSISTGGGSTYYRDSVKGRFTISRDNSKSTLYLQMNSLRAEDTAVYYCTTDLSAIAATPFAYWGQGTLVTVSSASTKGPSVFPLAPSSKSTSGGTAALGCLVKDYFPEPVTVSWNSGALTSGVHTFPAVLQSSGLYSLSSVVTVPSSSLGTQTYICNVNHKPSDTKVDKKVEPKSCDKTHTCPPCPAPPVAGPSVFLFPPKPKDTLMISRTPEVTCVVVDVKHEDPEVKFNWYVDGVEVHNAKTKPREEEYNSTYRVVSVLTVLHQDWLNGKEYKCKVSNKALPAPIEKTISKAKGQPREPQVYTLPPSREEMTKNQVSLTCDVSGFYPSDIAVEWESDGQPENNYKTTPPVLDSDGSFFLYSKLTVDKSRWEQGDVFSCSVLHEALHSHYTQKSLSLSPGK
scFv-Fc: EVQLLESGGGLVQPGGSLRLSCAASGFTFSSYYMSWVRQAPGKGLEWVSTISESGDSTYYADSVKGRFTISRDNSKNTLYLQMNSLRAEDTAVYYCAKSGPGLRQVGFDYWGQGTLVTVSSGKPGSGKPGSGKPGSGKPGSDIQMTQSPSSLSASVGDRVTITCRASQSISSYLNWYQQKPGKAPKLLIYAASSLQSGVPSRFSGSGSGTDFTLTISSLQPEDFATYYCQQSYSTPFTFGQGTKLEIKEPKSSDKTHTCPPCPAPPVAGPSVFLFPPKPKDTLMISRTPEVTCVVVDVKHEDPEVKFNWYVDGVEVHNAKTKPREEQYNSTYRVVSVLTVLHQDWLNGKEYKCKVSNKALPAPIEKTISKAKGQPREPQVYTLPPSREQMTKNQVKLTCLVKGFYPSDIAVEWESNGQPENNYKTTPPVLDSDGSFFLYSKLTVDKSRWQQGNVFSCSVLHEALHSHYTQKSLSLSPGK
light: DIQMTQSPSSLSASVGDRVTITCRASQNIYTSLAWYQQKPGKAPKLLIYNAHSLQTGIPSRFSGSGSGADFTLTISSLQPEDFATYFCQQYYSGLTFGSGTKLEIKRTVAAPSVFIFPPSDEQLKSGTASVVCLLNNFYPREAKVQWKVDNALQSGNSQESVTEQDSKDSTYSLSSTLTLSKADYEKHKVYACEVTHQGLSSPVTKSFNRGEC
B6 was tested, and the Kd [2] was 370 nM and the Kd [3] was 8.1 nM.

B7: 6A1_H1L1 (antibody, V domains shown)
VH: EVQLLESGGGLVQPGGSLRLSCAASGFTFSNYYMAWVRQAPGKGLEWVSSISTGGGSTYYRDSVKGRFTISRDNSKSTLYLQMNSLRAEDTAVYYCTTDLSAIAATPFAYWGQGTLVTVSS
VL: DIQMTQSPSSLSASVGDRVTITCRASQNIYTSLAWYQQKPGKAPKLLIYNAHSLQTGIPSRFSGSGSGADFTLTISSLQPEDFATYFCQQYYSGLTFGSGTKLEIK
For B7, the Kd [1] was 8.1 nM and the Kd (cynomolgus B7H3) was 4.2 nM.

B8: 38E2_H2_L1.1 (antibody, V domains shown)
VH: EVQLVESGGGLVKPGGSLRLSCAASGFSFSVGYYMCWVRQAPGKGLEWVSCIYVGSGSSGSTYYASVKGRFTISSDTAKTSVYLQMNSLRAEDTAVYFCARTAGSDWRLDLWGQGTLVTVSS
VL: DIVMTQSPSSLSASVGDRVTITCRASQSIANELSWYQQKPGKPPKLLIYRASTLTSGVPSRFKGSGSGTDFTLTISSLQPEDFATYYCQSTYNGRAIGFGGGTKVEIK
In the case of B8, the Kd [1] is reported as 0.5 nM and the Kd (cynomolgus B7H3) is reported as 1.4 nM.

B9: 2E4A3_H1.22_L1 (antibody, V domains shown)
VH: QVQLVQSGAEVKKPGASVKVSCKASGYIFTNNYMHWVRQAPGQGLEWMGIISPSVGRTAYAQKFQGRVTMTRDTSTSTVYMELSSLRSEDTAVYYCARGGGSSPRLDYWGQGTLVTVSS
VL: not shown
For B9, the Kd [1] was 6.1 nM and the Kd (cynomolgus B7H3) was 5.3 nM.

B10: H1.14_L1 (XENP31398) (antibody, V domains shown)
VH: EVQLLESGGGLVQPGGSLRLSCAASGFTFSSYYMSWVRQAPGKGLEWVSTISGSGDSTYYADSVKGRFTISRDNSKNTLYLQMNSLRAEDTAVYYCAKSGPGLRQVGFDYWGQGTLVTVSS
VL: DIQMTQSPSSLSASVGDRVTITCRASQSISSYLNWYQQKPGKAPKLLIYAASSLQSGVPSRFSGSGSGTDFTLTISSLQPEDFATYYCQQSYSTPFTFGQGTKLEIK
In the case of B10, the Kd [4] is reported as 62.8 nM.
